From PMC6681466 (Chemsuschem, 2018)
Values belong to the molecule of their own block, whether it stands above or below them.

Legend:
Ls7β-HSDH [1] = experiment: NADH formation at […] nm, fit with substrate inhibition; assay type: biochemical, Levilactobacillus spicheri; conditions: 2.0 mM NAD+, 50 mM KPi pH 8.0, 10% methanol, 25 °C
Cs7β-HSDH [2] = biological target: T1, Cs7β-HSDH (Clostridium sardiniense, UniProt G9FRD6); experiment: NADPH formation at […] nm, fit with substrate inhibition; assay type: biochemical; conditions: 2.0 mM NADP+, 50 mM KPi pH 8.0, 10% methanol, 25 °C
T1 sequence (G9FRD6 1-261): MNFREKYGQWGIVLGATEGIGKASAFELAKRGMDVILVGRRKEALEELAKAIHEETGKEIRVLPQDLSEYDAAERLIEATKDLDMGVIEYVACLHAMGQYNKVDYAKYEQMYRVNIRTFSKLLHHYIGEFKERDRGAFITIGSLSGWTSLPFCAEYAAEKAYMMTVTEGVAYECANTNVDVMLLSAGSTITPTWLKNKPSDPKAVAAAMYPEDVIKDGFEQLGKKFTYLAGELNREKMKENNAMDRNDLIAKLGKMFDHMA

Ls7β-HSDH [3] = experiment: NADH formation at […] nm, fit with substrate inhibition; assay type: biochemical, Levilactobacillus spicheri; conditions: read-out: UDCA / K m / [mmol L^-1]; 2.0 mM NAD+, 50 mM KPi pH 8.0, 10% methanol, 25 °C
Cs7β-HSDH [4] = biological target: T1, Cs7β-HSDH; experiment: NADPH formation at […] nm, fit with substrate inhibition; assay type: biochemical; conditions: 1.0 mM UDCA, 50 mM KPi pH 8.0, 10% methanol, 25 °C
Ls7β-HSDH [5] = experiment: NADH consumption at […] nm, Michaelis-Menten; assay type: biochemical, Levilactobacillus spicheri; conditions: 0.5 mM NADH, 50 mM KPi pH 8.0, 10% methanol, 25 °C
purified protein [6] = substrate: C[C@H](CCC(=O)O)[C@H]1CC[C@H]2[C@@H]3C(=O)C[C@@H]4C[C@H](O)CC[C@]4(C)[C@H]3C[C@H](O)[C@]12C; experiment: purified protein; conditions: 0.5 mM NADPH, 50 mM KPi pH 8.0, 10% methanol, 25 °C
purified protein [7] = substrate: C[C@H](CCC(=O)O)[C@H]1CC[C@H]2[C@@H]3[C@@H](O)C[C@@H]4C[C@H](O)CC[C@]4(C)[C@H]3CC[C@]12C; experiment: purified protein; conditions: 2.0 mM NADP+, 50 mM KPi pH 8.0, 10% methanol, 25 °C
purified protein [8] = substrate: [H][C@]12CC(=O)[C@@]3([H])[C@]4([H])CC[C@H]([C@H](C)CCC(=O)O)[C@@]4(C)CC[C@]3([H])[C@@]1(C)CC[C@@H](O)C2; experiment: purified protein; conditions: 0.5 mM NADPH, 50 mM KPi pH 8.0, 10% methanol, 25 °C

UDCA / K i / (Cs7β-HSDH [2]): 1400 ± 300 µM
Km (Ls7β-HSDH [3]): 156 ± 51 µM
Molecule: C[C@H](CCC(=O)O)[C@H]1CC[C@H]2[C@@H]3[C@@H](O)C[C@@H]4C[C@H](O)CC[C@]4(C)[C@H]3CC[C@]12C [UDCA]
UDCA / K i / (Ls7β-HSDH [1]): 800 ± 300 µM

NADP^+ / K i / (Cs7β-HSDH [4]): 10000 ± 3000 µM
Molecule: NC(=O)c1ccc[n+]([C@@H]2O[C@H](COP(=O)(O)OP(=O)(O)OC[C@H]3O[C@@H](n4cnc5c(N)ncnc54)[C@H](OP(=O)(O)O)[C@@H]3O)[C@@H](O)[C@H]2O)c1 [NADP^+]

Km (Ls7β-HSDH [5]; read-out: 7-oxo-DCA / K m / [mmol L^-1]): 131 ± 28 µM
Molecule: C[C@H](CCC(=O)O)[C@H]1CC[C@H]2[C@@H]3C(=O)C[C@@H]4C[C@H](O)CC[C@]4(C)[C@H]3C[C@H](O)[C@]12C [7-oxo-DCA]

Molecule: C[C@H](CCC(=O)O)[C@H]1CC[C@H]2[C@@H]3C(=O)C[C@@H]4C[C@H](O)CC[C@]4(C)[C@H]3CC[C@]12C [7-oxo-LCA]
Km (Ls7β-HSDH [5]; read-out: 7-oxo-LCA / K m / [mmol L^-1]): 38 ± 14 µM

B1: Cs7β-HSDH (Clostridium sardiniense) (protein)
chain: MNFREKYGQWGIVLGATEGIGKASAFELAKRGMDVILVGRRKEALEELAKAIHEETGKEIRVLPQDLSEYDAAERLIEATKDLDMGVIEYVACLHAMGQYNKVDYAKYEQMYRVNIRTFSKLLHHYIGEFKERDRGAFITIGSLSGWTSLPFCAEYAAEKAYMMTVTEGVAYECANTNVDVMLLSAGSTITPTWLKNKPSDPKAVAAAMYPEDVIKDGFEQLGKKFTYLAGELNREKMKENNAMDRNDLIAKLGKMFDHMA
Km (purified protein [6]): 106 ± 5 µM
kcat (purified protein [6]): 2.27 ± 0.03 s⁻¹
kcat/Km (purified protein [6]): 21300 M⁻¹ s⁻¹
Km (purified protein [7]): 160 ± 30 µM
kcat (purified protein [7]): 3.61 ± 0.34 s⁻¹
kcat/Km (purified protein [7]): 22600 M⁻¹ s⁻¹
Km (purified protein [8]): 128 ± 27 µM
kcat (purified protein [8]): 1.37 s⁻¹
kcat/Km (purified protein [8]): 10700 M⁻¹ s⁻¹
